Data on nine molecules can be found in patent publication US20220048967A1 (published 2022).

Experiment [1] deals with human GLP-1 receptor (GLP-1R) (human, UniProt P43220 24-463). Put plainly: cell-based or functional assay.
Experiment [2] addresses T1, human gastric inhibitory peptide receptor (GIPR) (human, UniProt P48546 22-466).
T1 sequence (looked up): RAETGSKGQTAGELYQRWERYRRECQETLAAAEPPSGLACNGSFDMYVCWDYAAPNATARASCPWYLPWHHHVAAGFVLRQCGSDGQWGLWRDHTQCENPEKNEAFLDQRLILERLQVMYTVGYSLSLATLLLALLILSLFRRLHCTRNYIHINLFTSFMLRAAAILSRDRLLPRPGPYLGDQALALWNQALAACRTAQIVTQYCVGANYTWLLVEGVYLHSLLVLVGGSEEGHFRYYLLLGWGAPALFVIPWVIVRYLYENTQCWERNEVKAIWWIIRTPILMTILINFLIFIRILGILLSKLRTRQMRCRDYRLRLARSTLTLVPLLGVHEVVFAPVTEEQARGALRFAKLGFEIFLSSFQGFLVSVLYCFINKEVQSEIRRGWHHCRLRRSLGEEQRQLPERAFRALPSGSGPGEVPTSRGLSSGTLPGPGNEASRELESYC
Kind of experiment: cell-based or functional assay.
For hGIPR cAMP EC50 ratio in this document: reference of the scale not given here.
For hGLP1R cAMP EC50 ratio in this document: reference of the scale not given here.

B1: Example 168 (peptide)
peptide: YXEGTXTSDHSIXLDEKAQXTFIXYLIEGGPSSGAPPPS
modifications: Y-Aib-EGT-αMeF(2F)-TSDHSI-αMeF-LDEK((2-[2-(2-Amino-ethoxy)-ethoxy]-acetyl)2-(γ-Glu)-CO-(CH2)18-CO2H)AQ-Aib-TFI-(D-Glu)-YLIEGGPSSGAPPPS-NH2
In the case of B1, in experiment [1], the “hGLP1R cAMP EC50 ratio” value was determined as 0.0323 and the “hGLP1R cAMP Rel EC50” value was found to be 1.8 nM. For the same molecule, in experiment [2], the “hGIPR cAMP EC50 ratio” value was determined as 0.313 and the “hGIPR cAMP Rel EC50” value was determined as 0.572 nM.

B2: Example 181 (peptide)
peptide: YXEGTXTSDXSIXLDEKAQXEFIXYLIEGGPSSGAPPPS
modifications: Y-Aib-EGT-αMeF(2F)-TSD-3Pal-SI-αMeF-LDEK((2-[2-(2-Amino-ethoxy)-ethoxy]-acetyl)2-(γ-Glu)-CO-(CH2)18-CO2H)AQ-Aib-EFI-(D-Glu)-YLIEGGPSSGAPPPS-NH2
As to B2, in experiment [1], the “hGLP1R cAMP EC50 ratio” value worked out at 0.718 and the “hGLP1R cAMP Rel EC50” value amounted to 0.0592 nM. Besides, in experiment [2], the “hGIPR cAMP EC50 ratio” value stood at 4.1 and the “hGIPR cAMP Rel EC50” value worked out at 0.0459 nM.

B3: Example 176 (peptide)
peptide: YXEGTXTSDHSIXLDEKAQXTFIXYLIEGGPSSGAPPPS
modifications: Y-Aib-EGT-αMeF(2F)-TSDHSI-αMeF-LDEK((2-[2-(2-Amino-ethoxy)-ethoxy]-acetyl)2-(ϵK)-CO-(CH2)16-CO2H)AQ-Aib-TFI-(D-Glu)-YLIEGGPSSGAPPPS-NH2
Consider B3, for which, in experiment [1], the “hGLP1R cAMP EC50 ratio” value amounted to 0.0427 and the “hGLP1R cAMP Rel EC50” value was found to be 1.07 nM. In experiment [2], the “hGIPR cAMP EC50 ratio” value is 0.201 and the “hGIPR cAMP Rel EC50” value came to 0.523 nM.

B4: Example 172 (peptide)
peptide: YXEGTXTSDHSIXLDXKAQXTFIXYLIEGGPSSGAPPPS
modifications: Y-Aib-EGT-αMeF(2F)-TSDHSI-αMeF-LD-Dab-K((2-[2-(2-Amino-ethoxy)-ethoxy]-acetyl)2-(γ-Glu)-CO-(CH2)18-CO2H)AQ-Aib-TFI-(D-Glu)-YLIEGGPSSGAPPPS-NH2
Consider B4, for which, in experiment [1], the “hGLP1R cAMP EC50 ratio” value worked out at 0.038 and the “hGLP1R cAMP Rel EC50” value is 1.2 nM. For the same molecule, in experiment [2], the “hGIPR cAMP EC50 ratio” value stood at 0.1 and the “hGIPR cAMP Rel EC50” value is 1.05 nM.

B5: Example 178 (peptide)
peptide: YXEGTXTSDHSIXLDEKAQXHFIXYLIEGGPSSGAPPPS
modifications: Y-Aib-EGT-αMeF(2F)-TSDHSI-αMeF-LDEK((2-[2-(2-Amino-ethoxy)-ethoxy]-acetyl)2-(γ-Glu)-CO-(CH2)14-CO2H)AQ-Aib-HFI-(D-Glu)-YLIEGGPSSGAPPPS-NH2
Consider B5, for which, in experiment [1], the “hGLP1R cAMP EC50 ratio” value was determined as 0.00349 and the “hGLP1R cAMP Rel EC50” value was found to be 13.1 nM. In experiment [2], the “hGIPR cAMP EC50 ratio” value was 0.0341 and the “hGIPR cAMP Rel EC50” value amounted to 3.08 nM.

B6: Example 177 (peptide)
peptide: YXEGTXTSDHSIXLDEKAQXHFIXYLIEGGPSSGAPPPS
modifications: Y-Aib-EGT-αMeF(2F)-TSDHSI-αMeF-LDEK((2-[2-(2-Amino-ethoxy)-ethoxy]-acetyl)2-(γ-Glu)-CO-(CH2)16-CO2H)AQ-Aib-HFI-(D-Glu)-YLIEGGPSSGAPPPS-NH2
B6: in experiment [1], the “hGLP1R cAMP EC50 ratio” value came to 0.00673 and the “hGLP1R cAMP Rel EC50” value turned out to be 6.79 nM. In experiment [2], the “hGIPR cAMP EC50 ratio” value is 0.0749 and the “hGIPR cAMP Rel EC50” value worked out at 1.4 nM.

B7: Example 173 (peptide)
peptide: YXEGTXTSDHSIXLDXKAQXTFIXYLIEGGPSSGAPPPS
modifications: Y-Aib-EGT-αMeF(2F)-TSDHSI-αMeF-LD-Dap-K((2-[2-(2-Amino-ethoxy)-ethoxy]-acetyl)2-(γ-Glu)-CO-(CH2)18-CO2H)AQ-Aib-TFI-(D-Glu)-YLIEGGPSSGAPPPS-NH2
As to B7, in experiment [1], the “hGLP1R cAMP EC50 ratio” value amounted to 0.0373 and the “hGLP1R cAMP Rel EC50” value was found to be 1.23 nM. Further, in experiment [2], the “hGIPR cAMP EC50 ratio” value is 0.179 and the “hGIPR cAMP Rel EC50” value was 0.586 nM.

B8: Example 170 (peptide)
peptide: YXEGTXTSDHSIXLDEKAQXTFIXYLIEGGPSSGAPPPS
modifications: Y-Aib-EGT-αMeF(2F)-TSDHSI-αMeF-LDEK((2-[2-(2-Amino-ethoxy)-ethoxy]-acetyl)2-(γ-Glu)-CO-(CH2)14-CO2H)AQ-Aib-TFI-(D-Glu)-YLIEGGPSSGAPPPS-NH2
As to B8, in experiment [1], the “hGLP1R cAMP EC50 ratio” value was determined as 0.00438 and the “hGLP1R cAMP Rel EC50” value was determined as 10.4 nM. Further, in experiment [2], the “hGIPR cAMP EC50 ratio” value was 0.185 and the “hGIPR cAMP Rel EC50” value amounted to 0.569 nM.

B9: Example 171 (peptide)
peptide: YXEGTXTSDHSIXLDXKAQXTFIXYLIEGGPSSGAPPPS
modifications: Y-Aib-EGT-αMeF(2F)-TSDHSI-αMeF-LD-Orn-K((2-[2-(2-Amino-ethoxy)-ethoxy]-acetyl)2-(γ-Glu)-CO-(CH2)18-CO2H)AQ-Aib-TFI-(D-Glu)-YLIEGGPSSGAPPPS-NH2
With B9, in experiment [1], the “hGLP1R cAMP EC50 ratio” value was 0.0609 and the “hGLP1R cAMP Rel EC50” value was found to be 0.75 nM. For the same molecule, in experiment [2], the “hGIPR cAMP EC50 ratio” value is 0.471 and the “hGIPR cAMP Rel EC50” value was 0.223 nM.
